Data from PMC6874530 (2019).

B1: LXRα LBD (protein)
chain: EQLGMIEKLVAAQQQCNRRSFSDRLRVTPWPMAPDPHSREARQQRFAHFTELAIVSVQEIVDFAKQLPGFLQLSREDQIALLKTSAIEVMLLETSRRYNPGSESITFLKDFSYNREDFAKAGLQVEFINPIFEFSRAMNELQLNDAEFALLIAISIFSADRPNVQDQLQVERLQHTYVEALHAYVSIHHPHDRLMFPRMLMKLVSLRTLSSVHSEQVFALRLQDKKLPPLLSEIWDVHE
modifications: AZ6
B2: LXRα LBD (protein)
chain: B1 chain
modifications: lipogenic agonists (average)
B3: LXRβ LBD (protein)
chain: AQELMIQQLVAAQLQCNKRSFSDQPKVTPWPLGADPQSRDARQQRFAHFTELAIISVQEIVDFAKQVPGFLQLGREDQIALLKASTIEIMLLETARRYNHETECITFLKDFTYSKDDFHRAGLQVEFINPIFEFSRAMRRLGLDDAEYALLIAINIFSADRPNVQEPGRVEALQQPYVEALLSYTRIKRPQDQLRFPRMLMKLVSLRTLSSVHSEQVFALRLQDKKLPPLLSEIWDVHE
modifications: 24,25EC
B4: LXRβ LBD (protein)
chain: B3 chain
modifications: BMS-852927
B5: LXRα LBD (protein)
chain: B1 chain
B6: LXRβ LBD (protein)
chain: B3 chain

These binders were tested against SRC1 peptide (Homo sapiens, UniProt Q15788) (assay: SPR).
Sequence of SRC1 peptide (Q15788 2-1441): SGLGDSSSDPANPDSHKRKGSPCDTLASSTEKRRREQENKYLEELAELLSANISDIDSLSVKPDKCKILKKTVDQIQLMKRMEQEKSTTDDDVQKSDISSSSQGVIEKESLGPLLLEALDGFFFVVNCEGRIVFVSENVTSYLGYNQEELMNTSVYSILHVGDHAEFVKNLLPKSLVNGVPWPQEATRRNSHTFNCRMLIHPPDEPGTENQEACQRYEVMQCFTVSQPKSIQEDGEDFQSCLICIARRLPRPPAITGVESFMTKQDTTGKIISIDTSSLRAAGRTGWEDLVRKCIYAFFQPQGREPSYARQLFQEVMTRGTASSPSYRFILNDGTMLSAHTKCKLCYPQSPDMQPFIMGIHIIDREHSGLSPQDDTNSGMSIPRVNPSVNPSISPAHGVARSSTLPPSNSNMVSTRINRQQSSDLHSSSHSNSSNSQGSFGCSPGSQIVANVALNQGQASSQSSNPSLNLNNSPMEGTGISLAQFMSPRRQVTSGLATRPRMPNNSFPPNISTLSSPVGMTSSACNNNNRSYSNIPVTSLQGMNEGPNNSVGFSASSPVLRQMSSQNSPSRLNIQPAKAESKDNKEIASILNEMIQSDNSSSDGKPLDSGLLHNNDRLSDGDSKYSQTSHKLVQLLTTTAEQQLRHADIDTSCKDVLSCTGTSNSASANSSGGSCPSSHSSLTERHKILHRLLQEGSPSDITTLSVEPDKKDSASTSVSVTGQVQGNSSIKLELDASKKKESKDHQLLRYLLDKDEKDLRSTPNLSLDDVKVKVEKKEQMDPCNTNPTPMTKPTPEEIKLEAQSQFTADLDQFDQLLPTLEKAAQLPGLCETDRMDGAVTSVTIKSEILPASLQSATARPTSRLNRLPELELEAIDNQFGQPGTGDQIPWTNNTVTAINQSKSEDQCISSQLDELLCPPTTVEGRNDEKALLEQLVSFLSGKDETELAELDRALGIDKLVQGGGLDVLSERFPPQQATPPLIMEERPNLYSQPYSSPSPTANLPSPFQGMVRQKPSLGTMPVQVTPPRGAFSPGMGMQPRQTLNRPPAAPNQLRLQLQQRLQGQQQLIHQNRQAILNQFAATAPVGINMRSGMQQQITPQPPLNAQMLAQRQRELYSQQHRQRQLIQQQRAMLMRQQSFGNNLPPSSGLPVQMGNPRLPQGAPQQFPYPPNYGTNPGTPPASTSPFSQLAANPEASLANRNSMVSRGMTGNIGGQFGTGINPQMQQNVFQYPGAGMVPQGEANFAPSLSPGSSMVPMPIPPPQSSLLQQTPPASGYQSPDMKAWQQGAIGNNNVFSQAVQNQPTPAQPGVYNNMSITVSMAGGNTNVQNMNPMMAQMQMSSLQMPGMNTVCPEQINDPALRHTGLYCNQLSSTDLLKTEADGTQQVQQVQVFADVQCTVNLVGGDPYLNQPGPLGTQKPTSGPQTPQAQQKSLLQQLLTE
B1 was tested, and the Kd was 1500 nM. B2 was tested, and the Kd was 1200 nM. With B3 the Kd was 2500 nM. B4 gave a Kd of 19800 nM.

Each binder was assayed against NCOR1 peptide (Homo sapiens, UniProt O75376) (assay: SPR).
Sequence of NCOR1 peptide (O75376 whole entry): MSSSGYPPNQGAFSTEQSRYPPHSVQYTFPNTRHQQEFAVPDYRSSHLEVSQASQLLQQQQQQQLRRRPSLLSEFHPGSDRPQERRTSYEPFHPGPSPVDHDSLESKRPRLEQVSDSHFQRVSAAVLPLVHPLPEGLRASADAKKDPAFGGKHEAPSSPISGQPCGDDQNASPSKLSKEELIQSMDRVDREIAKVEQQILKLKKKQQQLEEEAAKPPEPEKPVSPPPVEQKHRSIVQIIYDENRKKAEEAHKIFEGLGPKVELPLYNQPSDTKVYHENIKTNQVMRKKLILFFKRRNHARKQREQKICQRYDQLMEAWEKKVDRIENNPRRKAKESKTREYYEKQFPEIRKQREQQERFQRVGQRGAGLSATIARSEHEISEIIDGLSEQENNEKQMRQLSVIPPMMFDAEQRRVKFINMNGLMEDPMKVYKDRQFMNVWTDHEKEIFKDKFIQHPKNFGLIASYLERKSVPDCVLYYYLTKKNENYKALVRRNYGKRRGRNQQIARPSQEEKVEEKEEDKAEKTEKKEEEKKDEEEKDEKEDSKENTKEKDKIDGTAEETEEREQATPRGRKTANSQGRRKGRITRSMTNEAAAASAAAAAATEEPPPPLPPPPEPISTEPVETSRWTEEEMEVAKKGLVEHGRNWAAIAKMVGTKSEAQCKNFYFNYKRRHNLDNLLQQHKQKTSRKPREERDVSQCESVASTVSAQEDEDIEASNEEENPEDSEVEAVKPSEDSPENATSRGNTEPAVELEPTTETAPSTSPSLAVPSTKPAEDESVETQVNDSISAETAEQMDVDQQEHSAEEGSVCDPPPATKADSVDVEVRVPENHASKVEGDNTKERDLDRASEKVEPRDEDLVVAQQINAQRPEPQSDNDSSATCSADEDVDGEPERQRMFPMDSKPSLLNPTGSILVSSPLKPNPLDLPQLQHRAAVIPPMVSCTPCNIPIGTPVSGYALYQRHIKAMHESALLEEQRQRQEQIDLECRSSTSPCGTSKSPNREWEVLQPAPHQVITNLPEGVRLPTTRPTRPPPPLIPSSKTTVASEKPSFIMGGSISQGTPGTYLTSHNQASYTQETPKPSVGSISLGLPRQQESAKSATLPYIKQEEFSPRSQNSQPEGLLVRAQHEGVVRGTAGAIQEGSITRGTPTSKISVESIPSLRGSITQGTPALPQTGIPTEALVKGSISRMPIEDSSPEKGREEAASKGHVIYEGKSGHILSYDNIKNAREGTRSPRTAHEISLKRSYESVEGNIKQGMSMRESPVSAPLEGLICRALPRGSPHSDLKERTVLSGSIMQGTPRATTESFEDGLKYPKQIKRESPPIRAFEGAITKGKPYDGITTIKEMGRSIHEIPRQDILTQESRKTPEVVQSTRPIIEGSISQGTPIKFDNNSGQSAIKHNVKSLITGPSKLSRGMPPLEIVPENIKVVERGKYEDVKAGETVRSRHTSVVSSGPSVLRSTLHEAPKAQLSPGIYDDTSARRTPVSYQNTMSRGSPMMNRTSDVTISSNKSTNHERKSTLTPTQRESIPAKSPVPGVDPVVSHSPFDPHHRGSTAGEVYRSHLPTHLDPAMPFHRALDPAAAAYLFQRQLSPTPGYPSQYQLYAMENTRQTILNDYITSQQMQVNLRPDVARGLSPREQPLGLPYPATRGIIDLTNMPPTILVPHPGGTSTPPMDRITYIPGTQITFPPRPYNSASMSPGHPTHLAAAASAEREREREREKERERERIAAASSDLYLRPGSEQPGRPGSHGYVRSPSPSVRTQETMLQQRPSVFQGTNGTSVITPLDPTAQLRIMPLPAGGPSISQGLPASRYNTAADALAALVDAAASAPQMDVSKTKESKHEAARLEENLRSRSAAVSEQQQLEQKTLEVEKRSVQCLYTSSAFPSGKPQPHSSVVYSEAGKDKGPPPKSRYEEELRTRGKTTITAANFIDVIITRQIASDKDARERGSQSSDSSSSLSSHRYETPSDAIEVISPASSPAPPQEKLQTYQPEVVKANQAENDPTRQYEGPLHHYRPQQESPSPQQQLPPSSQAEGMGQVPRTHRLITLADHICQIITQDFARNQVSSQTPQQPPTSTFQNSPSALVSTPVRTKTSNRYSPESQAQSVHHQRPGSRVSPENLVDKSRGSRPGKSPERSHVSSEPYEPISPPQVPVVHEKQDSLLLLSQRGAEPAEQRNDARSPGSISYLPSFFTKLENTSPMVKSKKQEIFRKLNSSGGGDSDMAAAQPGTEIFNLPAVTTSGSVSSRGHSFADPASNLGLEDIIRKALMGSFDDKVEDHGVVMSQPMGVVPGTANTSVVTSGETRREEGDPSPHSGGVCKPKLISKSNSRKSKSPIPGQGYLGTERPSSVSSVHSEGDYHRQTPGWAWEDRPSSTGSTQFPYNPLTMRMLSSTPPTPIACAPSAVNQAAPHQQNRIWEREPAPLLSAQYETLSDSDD
Binder B5 has a Kd of 800 nM. B6 was tested, and the Kd was 500 nM.
